Consider 1 variant from IntAct's records for PubMed 16098514.

B1: GTPase RhebL1 (Homo sapiens), Q8TAI7 (parent)
chain: MPLVRYRKVVILGYRCVGKTSLAHQFVEGEFSEGYDPTVENTYSKIVTLGKDEFHLHLVDTAGQDEYSILPYSFIIGVHGYVLVYSVTSLHSFQVIESLYQKLHEGHGKTRVPVVLVGNKADLSPEREVQAVEGKKLAESWGATFMESSARENQLTQGIFTKVIQEIARVENSYGQERRCHLM

The assay covers variants of B1. The following applies: with mtor_human MTOR.
Take N41A: the “effect of a mutation on the interaction” value was “disrupting interaction”.
